The term Kd denotes the free concentration of one partner at which half of the binding sites on the other are occupied at equilibrium, for simple one-to-one binding. The term stoichiometry N denotes a count of units in the complex or per binding partner.

The target of assay [1] is vitronectin (human). The experiment in a line: ELISA; vitronectin (250 ng/well) coated, 5 uM recombinant protein plus increasing heparin, 2 h at 37 C; HRP anti-His MAbs.
Assay [2] deals with complement component C8 (human) (UniProt P07357). Nature of the assay: ELISA; dose-response: 1 ug host component or BSA coated, increasing recombinant protein (0-20 uM); HRP anti-His MAb; KD by non-linear regression in GraphPad Prism 6. On the technique in general: An ELISA detects its analyte on a solid surface through an enzyme-linked reagent.
Chain of UniProt P07357 (P07357 31-584, chain 1 of 3): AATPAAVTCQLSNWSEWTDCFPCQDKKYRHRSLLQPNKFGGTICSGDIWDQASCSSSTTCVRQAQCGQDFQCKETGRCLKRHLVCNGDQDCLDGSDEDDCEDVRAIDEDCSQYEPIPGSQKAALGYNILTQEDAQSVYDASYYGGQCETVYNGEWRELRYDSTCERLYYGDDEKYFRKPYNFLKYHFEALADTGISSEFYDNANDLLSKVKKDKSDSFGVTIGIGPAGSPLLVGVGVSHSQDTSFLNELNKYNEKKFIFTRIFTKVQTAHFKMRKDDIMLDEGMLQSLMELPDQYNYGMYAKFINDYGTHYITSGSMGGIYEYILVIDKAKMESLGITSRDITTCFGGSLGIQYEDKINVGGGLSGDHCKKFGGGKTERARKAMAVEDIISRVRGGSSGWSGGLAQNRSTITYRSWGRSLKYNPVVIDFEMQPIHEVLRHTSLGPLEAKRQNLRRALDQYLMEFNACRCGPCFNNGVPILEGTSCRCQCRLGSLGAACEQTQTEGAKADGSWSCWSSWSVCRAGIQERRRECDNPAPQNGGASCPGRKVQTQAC
Chain of UniProt P07357 (P07358 55-591, chain 2 of 3, further chain): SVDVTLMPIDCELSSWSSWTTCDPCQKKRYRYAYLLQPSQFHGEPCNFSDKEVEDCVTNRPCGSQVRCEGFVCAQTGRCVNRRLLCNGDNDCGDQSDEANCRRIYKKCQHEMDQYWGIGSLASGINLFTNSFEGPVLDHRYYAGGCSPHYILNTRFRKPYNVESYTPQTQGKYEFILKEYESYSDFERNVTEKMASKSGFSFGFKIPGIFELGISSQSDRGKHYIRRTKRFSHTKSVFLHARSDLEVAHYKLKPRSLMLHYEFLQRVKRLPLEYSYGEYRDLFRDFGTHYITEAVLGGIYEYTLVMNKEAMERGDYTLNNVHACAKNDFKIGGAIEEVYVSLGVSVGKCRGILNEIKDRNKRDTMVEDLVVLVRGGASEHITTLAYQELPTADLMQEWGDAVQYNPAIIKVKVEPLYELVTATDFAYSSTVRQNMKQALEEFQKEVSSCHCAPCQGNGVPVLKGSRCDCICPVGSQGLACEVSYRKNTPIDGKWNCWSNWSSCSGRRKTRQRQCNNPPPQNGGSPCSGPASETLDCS
Chain of UniProt P07357 (P07360 21-202, chain 3 of 3, further chain): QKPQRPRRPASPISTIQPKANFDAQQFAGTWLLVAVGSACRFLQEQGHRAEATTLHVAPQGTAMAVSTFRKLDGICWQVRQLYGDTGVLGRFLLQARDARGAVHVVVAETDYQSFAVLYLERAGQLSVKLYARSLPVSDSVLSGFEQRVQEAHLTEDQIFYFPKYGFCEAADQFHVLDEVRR
Assay [3] addresses complement component C9 (human) (UniProt P02748). Described as above.
Chain of UniProt P02748 (P02748 22-559): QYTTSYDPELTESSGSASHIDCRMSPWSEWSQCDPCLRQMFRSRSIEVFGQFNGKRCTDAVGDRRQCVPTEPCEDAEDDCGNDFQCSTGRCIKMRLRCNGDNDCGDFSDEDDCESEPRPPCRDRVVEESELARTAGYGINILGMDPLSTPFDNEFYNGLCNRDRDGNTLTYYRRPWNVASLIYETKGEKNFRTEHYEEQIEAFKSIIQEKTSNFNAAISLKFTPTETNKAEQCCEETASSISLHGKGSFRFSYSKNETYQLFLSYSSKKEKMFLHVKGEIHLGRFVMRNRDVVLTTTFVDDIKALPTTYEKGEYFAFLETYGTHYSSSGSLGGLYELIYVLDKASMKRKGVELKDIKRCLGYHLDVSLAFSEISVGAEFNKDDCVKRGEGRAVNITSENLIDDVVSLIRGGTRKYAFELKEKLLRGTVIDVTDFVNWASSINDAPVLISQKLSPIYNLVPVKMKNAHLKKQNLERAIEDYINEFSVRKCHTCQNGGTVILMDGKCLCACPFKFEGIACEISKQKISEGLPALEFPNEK
Assay [4] deals with complement component C7 (human) (UniProt P10643). The description is as above.
Chain of UniProt P10643 (P10643 23-843): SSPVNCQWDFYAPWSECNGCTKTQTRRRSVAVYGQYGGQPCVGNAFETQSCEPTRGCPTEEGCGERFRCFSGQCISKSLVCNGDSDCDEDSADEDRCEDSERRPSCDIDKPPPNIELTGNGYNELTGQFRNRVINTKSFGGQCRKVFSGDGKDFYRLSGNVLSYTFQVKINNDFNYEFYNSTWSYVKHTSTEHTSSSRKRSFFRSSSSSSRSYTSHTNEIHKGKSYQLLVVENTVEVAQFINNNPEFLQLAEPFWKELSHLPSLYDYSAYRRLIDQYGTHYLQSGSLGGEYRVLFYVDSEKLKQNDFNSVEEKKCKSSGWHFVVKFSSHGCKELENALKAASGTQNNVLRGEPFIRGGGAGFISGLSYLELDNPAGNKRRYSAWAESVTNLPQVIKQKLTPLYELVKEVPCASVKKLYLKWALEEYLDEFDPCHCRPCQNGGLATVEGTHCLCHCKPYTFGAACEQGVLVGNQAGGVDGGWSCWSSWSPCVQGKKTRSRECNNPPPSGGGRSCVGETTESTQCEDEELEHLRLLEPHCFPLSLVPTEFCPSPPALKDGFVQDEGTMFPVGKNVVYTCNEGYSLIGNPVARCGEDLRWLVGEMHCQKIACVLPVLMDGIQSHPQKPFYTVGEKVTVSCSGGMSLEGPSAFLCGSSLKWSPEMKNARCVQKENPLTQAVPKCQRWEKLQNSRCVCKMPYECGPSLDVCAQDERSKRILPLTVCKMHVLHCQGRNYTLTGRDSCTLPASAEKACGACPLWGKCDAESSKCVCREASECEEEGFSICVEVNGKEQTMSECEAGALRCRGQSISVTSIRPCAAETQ
Assay [5] deals with native LIC11711 (L. interrogans serovar Copenhageni (endogenous in strain M20)). Nature of the assay: western blot of cell extracts; L. interrogans M20 cells treated with proteinase K for 0, 1 and 3 h, extracts blotted and probed with antiserum against rLIC11711.
Assay [6] addresses recombinant protein LIC11711 (L. interrogans serovar Copenhageni (strain M20 genomic DNA)). Nature of the assay: non-reducing SDS-PAGE with western blot; purified recombinant proteins, non-reducing against reducing treatment (beta-mercaptoethanol and heating at 96 C); probed with anti-His MAbs or polyclonal antisera. (In general: In western blotting, separated proteins are transferred to a membrane and probed.)

Assay [7] addresses plasminogen (human). Nature of the assay: ELISA; time course: 1 ug PLG coated, 1 ug recombinant protein for 5, 15, 30, 60 and 120 min; anti-His MAbs; percent of the 120 min value.
For assay [8], the target named is E-cadherin (UniProt P12830). The experiment in a line: ELISA; dose-response: 1 ug host component or BSA coated, increasing recombinant protein (0-20 uM); HRP anti-His MAb; KD by non-linear regression in GraphPad Prism 6.

“recombinant protein LIC12587 (natural protein)”: in assay [1], the percent reduction of binding with 10 ug/well heparin is 10%. Besides, in assay [1], the percent reduction of binding with 100 ug/well heparin turned out to be 51%. Also, the Kd worked out at 470 nM in assay [2], 630 nM in assay [3] and 1950 nM in assay [4].

native LIC11711 (natural protein) had a stoichiometry N in assay [5] of 2.

“recombinant protein LIC11711 (natural protein)”: the stoichiometry N in assay [6] was 2. The percent of the maximal binding (2 h) reached at 5 min in assay [7] was determined as 40%. In assay [1], the percent reduction of binding with 10 ug/well heparin was 40% and the percent reduction of binding with 100 ug/well heparin turned out to be 54%. In addition, the Kd in assay [8] turned out to be 3820 nM.
